Laboratory results from paper PMC12607630 (2025).

T1: SUMO-FtsZ^316-370 (Escherichia coli, UniProt P0A9A6 316-370)
T1 chain: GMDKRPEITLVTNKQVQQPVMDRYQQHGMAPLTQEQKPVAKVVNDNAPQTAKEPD

T2: SUMO-FtsZ^370-383 (Escherichia coli, UniProt P0A9A6 370-383)
T2 chain: DYLDIPAFLRKQAD


Assays:
Experiment in all cases: BLI
SUMO-FtsZ^316-370 = molecular target: T1, SUMO-FtsZ^316-370
SUMO-FtsZ^370-383 = molecular target: T2, SUMO-FtsZ^370-383
6×His-ZapC^K94D = 6×His-ZapC^K94D (Escherichia coli, UniProt P75862 1-180, K94D)
6×His-ZapC^F30D = 6×His-ZapC^F30D (Escherichia coli, UniProt P75862 1-180, F30D)

Binder	Kd (SUMO-FtsZ^316-370) [µM]	Kd (SUMO-FtsZ^370-383) [µM]	Kd (6×His-ZapC^K94D) [µM]	Kd (6×His-ZapC^F30D) [µM]
ZapC (untagged) (natural protein) not shown	50.7	11.4	–	–
FtsZ (wild-type, untagged) (natural protein) MFEPMELTNDAVIKVIGVGGGGGNAVEHMVRERIEGVEFFAVNTDAQALRKTAVGQTIQIGSGITKGLGAGANPEVGRNAADEDRDALRAALEGADMVFIAAGMGGGTGTGAAPVVAEVAKDLGILTVAVVTKPFNFEGKKRMAFAEQGITELSKHVDSLITIPNDKLLKVLGRGISLLDAFGAANDVLKGAVQGIAELITRPGLMNVDFADVRTVMSEMGYAMMGSGVASGEDRAEEAAEMAISSPLLEDIDLSGARGVLVNITAGFDLRLDEFETVGNTIRAFASDNATVVIGTSLDPDMNDELRVTVVATGIGMDKRPEITLVTNKQVQQPVMDRYQQHGMAPLTQEQKPVAKVVNDNAPQTAKEPDYLDIPAFLRKQAD	–	–	2.1	2.97
